Test [1] deals with T1, canine CD20 on cells (HEK293, MDCK II, CLBL-1 or native B cells) (canine, UniProt Q3C2E2 1-297).
T1 chain: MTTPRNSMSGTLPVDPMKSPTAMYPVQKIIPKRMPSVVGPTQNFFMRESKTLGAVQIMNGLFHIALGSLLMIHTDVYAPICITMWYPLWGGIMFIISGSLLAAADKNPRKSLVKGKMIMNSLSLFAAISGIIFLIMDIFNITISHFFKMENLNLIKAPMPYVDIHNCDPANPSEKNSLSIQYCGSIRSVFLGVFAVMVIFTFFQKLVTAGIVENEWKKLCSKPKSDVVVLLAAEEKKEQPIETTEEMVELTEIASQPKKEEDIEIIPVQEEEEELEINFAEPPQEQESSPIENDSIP
Kind of test: cell-based or functional assay.

Test [2] concerns the target T1, canine CD20 on cells (HEK293, MDCK II, …). The test is described as follows: cell-based or functional assay.
Test [3] shares this target. The test is described as follows: cell-based or functional assay.
The target in test [4] is T2, canine CD3εδ-Fc (heterodimer of canine CD3ε-hIgG4PE-knob and canine CD3δ-hIgG4PE-hole) (canine).
T2 construct: also called CD3εδ-Fc fusion protein; copies: 1 + 1
Kind of test: SPR Biacore 8K, single cycle, CD3εδ-Fc amine-coupled on CM5, antibody at 16.5, 33 and 66 nM. The procedure: Candidates CD3 bispecific antibodies were also screened for their ability to bind canine CD3εδ-Fc using surface plasmon resonance (SPR) using a Biacore 8K (Cytiva). Canine CD3εδ-Fc was covalently bound by amine coupling to the surface of a CM5 chip (Cytiva). CHO cell supernatant was diluted to 66, 33 and 16.5 nM in HBS-EP+ buffer and run on the chip single cycle kinetic protocol. Data was analysed using the dedicated software (Biacore Insight Evaluation Software).

T2 sequence (chain, as listed by the source mutant limits assumed): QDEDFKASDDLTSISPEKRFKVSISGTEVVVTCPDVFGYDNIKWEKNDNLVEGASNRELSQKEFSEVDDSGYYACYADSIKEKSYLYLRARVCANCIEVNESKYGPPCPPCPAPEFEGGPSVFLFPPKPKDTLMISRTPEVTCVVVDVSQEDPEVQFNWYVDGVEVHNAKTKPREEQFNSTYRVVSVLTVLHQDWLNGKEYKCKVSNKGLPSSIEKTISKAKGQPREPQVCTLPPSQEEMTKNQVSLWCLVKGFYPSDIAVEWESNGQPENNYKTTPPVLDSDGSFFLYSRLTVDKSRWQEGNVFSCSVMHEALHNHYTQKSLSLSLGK

B1: PMX172VH/PMX263VH/PMX172VL (bispecific antibody, V domains shown)
VH 1: EVQLVESGGDLVKPGGSLRLSCVASGFTFSSYHMSWVRQAPGKGLQWVAYSNSGGSRTSYADAVKGRFTISRDNAKNTLYLQMNSLRAEDTAVYYCASEGGGGRYGYKDYGMDYWGHGTSLFVSS
VH 2: EVQLVESGGDLVKPGGSLRLSCVASGFTFSRYYMNWVRQAPGKGLQWVAYINSGGSSTSYADAVKGRFTISRDNAKNTLYLQMNSLRADDTAVYYCTSFDYWGQGTLVTVSS
VL: SYVLTQLPSKNVTLKQPAHITCGGDNIGSKSVHWYQQKLGQAPVLIIYYDSSRPTGIPERFSGANSGNTATLTISGALAEDEADYYCQVWDSSAKAWVFGEGTQLTVL
B1: in test [1], the “EC50 (nM), bispecific killing (FIG. 13E)” value worked out at 15.7 nM.

B2: PMX172VH/PMX268VH/PMX172VL (bispecific antibody, V domains shown)
VH 1: EVQLVESGGDLVKPGGSLRLSCVASGFTFSSYHMSWVRQAPGKGLQWVAYSNSGGSRTSYADAVKGRFTISRDNAKNTLYLQMNSLRAEDTAVYYCASEGGGGRYGYKDYGMDYWGHGTSLFVSS
VH 2: EVQLVESGGDLMKPGGSLRLSCVASGITFSGYHMSWVRQAPGKGLQWVAFINSGRKNTAYADAVKGRFTISRDNAKNTLYLQMNSLRAEDTAIYYCTTLEFWGQGTLVTVSS
VL: SYVLTQLPSKNVTLKQPAHITCGGDNIGSKSVHWYQQKLGQAPVLIIYYDSSRPTGIPERFSGANSGNTATLTISGALAEDEADYYCQVWDSSAKAWVFGEGTQLTVL
As to B2, the “EC50 (nM), endogenous B cell depletion in PBMC (FIG. 16A)” value (shortened to “EC50 (nM), endogenous B cell depletion”) in test [2] amounted to 0.764 nM.

B3: PMX172VH/PMX262VH/PMX172VL (bispecific antibody, V domains shown)
VH 1: EVQLVESGGDLVKPGGSLRLSCVASGFTFSSYHMSWVRQAPGKGLQWVAYSNSGGSRTSYADAVKGRFTISRDNAKNTLYLQMNSLRAEDTAVYYCASEGGGGRYGYKDYGMDYWGHGTSLFVSS
VH 2: EVQLVESGGDLVKPGGSLRLSCVASGITFSRYYMNWVRQAPGKGLQWVAYINSGGSPTTYADAVKGRFTISRDNAKNTLYLQMNSLRAEDTAVYYCTSFDYWGQGTLVTVSS
VL: SYVLTQLPSKNVTLKQPAHITCGGDNIGSKSVHWYQQKLGQAPVLIIYYDSSRPTGIPERFSGANSGNTATLTISGALAEDEADYYCQVWDSSAKAWVFGEGTQLTVL
In the case of B3, the “EC50 (nM), endogenous B cell depletion” value in test [2] worked out at 0.247 nM. In test [3], the “EC50 (nM), bispecific killing (FIG. 15)” value was determined as 0.129 nM.

B4: PMX172VH/PMX273VH/PMX172VL (bispecific antibody, V domains shown)
VH 1: EVQLVESGGDLVKPGGSLRLSCVASGFTFSSYHMSWVRQAPGKGLQWVAYSNSGGSRTSYADAVKGRFTISRDNAKNTLYLQMNSLRAEDTAVYYCASEGGGGRYGYKDYGMDYWGHGTSLFVSS
VH 2: EMQLVESGGDLVKPGGSLRLSCVASGFTFSRYHMSWVRQAPGKGLQWVAYIDSDGSPTNYADAVKGRFTISRDNAKNTLYLQMNSLRAEDTAVYYCTTYDQWGQGTLVTVSS
VL: SYVLTQLPSKNVTLKQPAHITCGGDNIGSKSVHWYQQKLGQAPVLIIYYDSSRPTGIPERFSGANSGNTATLTISGALAEDEADYYCQVWDSSAKAWVFGEGTQLTVL
For the molecule B4, the “EC50 (nM), bispecific killing (FIG. 13E)” value in test [1] turned out to be 9.63 nM.

B5: PMX172VH/PMX230VH/PMX172VL (bispecific antibody, V domains shown)
VH 1: EVQLVESGGDLVKPGGSLRLSCVASGFTFSSYHMSWVRQAPGKGLQWVAYSNSGGSRTSYADAVKGRFTISRDNAKNTLYLQMNSLRAEDTAVYYCASEGGGGRYGYKDYGMDYWGHGTSLFVSS
VH 2: EVHLVESGGDLVKPGGSLRLSCVASGITFNRYYMNWVRQTPGKGLQWVAYIDSGGSPTTYADAVKGRFTISRDNAKNTLYLQMNSLRAEDTAVYYCTSFDYWGQGTLVTVSS
VL: SYVLTQLPSKNVTLKQPAHITCGGDNIGSKSVHWYQQKLGQAPVLIIYYDSSRPTGIPERFSGANSGNTATLTISGALAEDEADYYCQVWDSSAKAWVFGEGTQLTVL
As for B5, the “EC50 (nM), endogenous B cell depletion” value in test [2] was found to be 0.183 nM. For the same molecule, the “EC50 (nM), bispecific killing (FIG. 15)” value in test [3] is 0.121 nM.

B6: PMX172VH/PMX272VH/PMX172VL (bispecific antibody, V domains shown)
VH 1: EVQLVESGGDLVKPGGSLRLSCVASGFTFSSYHMSWVRQAPGKGLQWVAYSNSGGSRTSYADAVKGRFTISRDNAKNTLYLQMNSLRAEDTAVYYCASEGGGGRYGYKDYGMDYWGHGTSLFVSS
VH 2: EVQLVESGGDLVKPGGSLRLSCVASGFTFSRYYMNWVRQAPGKGLQWVAYIDSDGSSTSYADAVKGRFTISRDNAKNTLYLQMNSLRADDTAVYYCTSFDYWGQGTLVTVSS
VL: SYVLTQLPSKNVTLKQPAHITCGGDNIGSKSVHWYQQKLGQAPVLIIYYDSSRPTGIPERFSGANSGNTATLTISGALAEDEADYYCQVWDSSAKAWVFGEGTQLTVL
Take B6: the “EC50 (nM), bispecific killing (FIG. 13E)” value in test [1] was 5.87 nM.

B7: PMX172VH/PMX239VH/PMX172VL (bispecific antibody, V domains shown)
VH 1: EVQLVESGGDLVKPGGSLRLSCVASGFTFSSYHMSWVRQAPGKGLQWVAYSNSGGSRTSYADAVKGRFTISRDNAKNTLYLQMNSLRAEDTAVYYCASEGGGGRYGYKDYGMDYWGHGTSLFVSS
VH 2: EVQLVESGGDLVKPGGSLRLSCVASGFTFSRYYMNWVRQAPGKGLQWVAFITSGGSSTSYGDAVKGRFTISRDNAKNTLYLQMNSLRAEDTAVYYCTSFDYWGQGTLVTVSS
VL: SYVLTQLPSKNVTLKQPAHITCGGDNIGSKSVHWYQQKLGQAPVLIIYYDSSRPTGIPERFSGANSGNTATLTISGALAEDEADYYCQVWDSSAKAWVFGEGTQLTVL
Take B7: the “EC50 (nM), bispecific killing (FIG. 13E)” value in test [1] turned out to be 2.59 nM.

B8: PMX172VH/PMX236VH/PMX172VL (bispecific antibody, V domains shown)
VH 1: EVQLVESGGDLVKPGGSLRLSCVASGFTFSSYHMSWVRQAPGKGLQWVAYSNSGGSRTSYADAVKGRFTISRDNAKNTLYLQMNSLRAEDTAVYYCASEGGGGRYGYKDYGMDYWGHGTSLFVSS
VH 2: EVQLVESGGDLVKPGGSLRLSCVASGLTFSRYYMNWVRQAPGKGLQWVAYIDSGGSPTNYADAVKGRFTISRDNAKNTLYLQMNSLRAEDTAVYYCSSFDYWGQGTLVTVSS
VL: SYVLTQLPSKNVTLKQPAHITCGGDNIGSKSVHWYQQKLGQAPVLIIYYDSSRPTGIPERFSGANSGNTATLTISGALAEDEADYYCQVWDSSAKAWVFGEGTQLTVL
On to B8, for which, in test [2], the “EC50 (nM), endogenous B cell depletion” value turned out to be 0.075 nM. Moreover, the “EC50 (nM), bispecific killing (FIG. 15)” value in test [3] was determined as 0.153 nM.

B9: PMX172VH/PMX233VH/PMX172VL (bispecific antibody, V domains shown)
VH 1: EVQLVESGGDLVKPGGSLRLSCVASGFTFSSYHMSWVRQAPGKGLQWVAYSNSGGSRTSYADAVKGRFTISRDNAKNTLYLQMNSLRAEDTAVYYCASEGGGGRYGYKDYGMDYWGHGTSLFVSS
VH 2: EMQLVESGGDLVKPGGSLRLSCVASGFTFSRYYMNWVRQAPGKGLQWVAYIDSGGSPTNYADAVKGRFTISRDNAKNTLYLQMNSLRAEDAAIYYCTTFDFWGQGTLVTVSS
VL: SYVLTQLPSKNVTLKQPAHITCGGDNIGSKSVHWYQQKLGQAPVLIIYYDSSRPTGIPERFSGANSGNTATLTISGALAEDEADYYCQVWDSSAKAWVFGEGTQLTVL
B9: the “EC50 (nM), endogenous B cell depletion” value in test [2] was 0.307 nM. Also, the “EC50 (nM), bispecific killing (FIG. 15)” value in test [3] turned out to be 0.188 nM.

B10: PMX172VH/PMX264VH/PMX172VL (bispecific antibody, V domains shown)
VH 1: EVQLVESGGDLVKPGGSLRLSCVASGFTFSSYHMSWVRQAPGKGLQWVAYSNSGGSRTSYADAVKGRFTISRDNAKNTLYLQMNSLRAEDTAVYYCASEGGGGRYGYKDYGMDYWGHGTSLFVSS
VH 2: EVQLVESGGDLVKPGGSLRLSCVASGFTFSRYHMSWVRQAPGKGLQWVAFINTGRMSTNYADAVKGRFTISRDNAKNTLYLQMNSLRAEDTAVYYCTSLDYWGQGTLVTVSS
VL: SYVLTQLPSKNVTLKQPAHITCGGDNIGSKSVHWYQQKLGQAPVLIIYYDSSRPTGIPERFSGANSGNTATLTISGALAEDEADYYCQVWDSSAKAWVFGEGTQLTVL
As to B10, the “EC50 (nM), bispecific killing (FIG. 13E)” value in test [1] was found to be 2.88 nM. In addition, in test [2], the “EC50 (nM), endogenous B cell depletion” value was 0.828 nM. Further, in test [3], the “EC50 (nM), bispecific killing (FIG. 15)” value stood at 0.361 nM.

B11: PMX159 in bispecific format (canine CD3 arm PMX159 x Rituximab arm, human IgG4PE knob-in-hole) (bispecific antibody)
heavy 1: ELTLQESGPGLVKPSQTLSLTCVVSGGSVTRSYYWNWIRQRPGRGLEWMGYWTGSTIYNPTFQGRISITADTAKSQFSLQLRSMTTEDTAMYFCAREGGKSLGAFAYWGQGTLVTVSSASTKGPSVFPLAPCSRSTSESTAALGCLVKDYFPEPVTVSWNSGALTSGVHTFPAVLQSSGLYSLSSVVTVPSSSLGTKTYTCNVDHKPSNTKVDKRVESKYGPPCPPCPAPEFEGGPSVFLFPPKPKDTLMISRTPEVTCVVVDVSQEDPEVQFNWYVDGVEVHNAKTKPREEQFNSTYRVVSVLTVLHQDWLNGKEYKCKVSNKGLPSSIEKTISKAKGQPREPQVYTLPPSQCEMTKNQVSLSCAVKGFYPSDIAVEWESNGQPENNYKTTPPVLDSDGSFFLVSRLTVDKSRWQEGNVFSCSVMHEALHNRFTQKSLSLSLGK
light 1: SYVLTQLPSKNVTLKQPAHITCGGDKIGSKNVHWYQQKLGQAPVMIIYYDSSRPTGIPERFSGANSGNTATLTISGALAEDEADYYCQVWDSSAKAAVFGGGTHLTVLRTVAAPSVFIFPPSDEQLKSGTASVVCLLNNFYPREAKVQWKVDNALQSGNSQESVTEQDSKDSTYSLSSTLTLSKADYEKHKVYACEVTHQGLSSPVTKSFNRGEC
heavy 2: not shown
light 2: QIVLSQSPAILSASPGEKVTMTCRASSSVSYIHWFQQKPGSSPKPWIYATSNLASGVPVRFSGSGSGTSYSLTISRVEAEDAATYYCQQWTSNPPTFGGGTKLEIKRTVAAPSVFIFPPSDEQLKSGTASVVCLLNNFYPREAKVQWKVDNALQSGNSQESVTEQDSKDSTYSLSSTLTLSKADYEKHKVYACEVTHQGLSSPVTKSFNRGEC
B11: the binding result in test [4] was “binds”.

Source of the values: patent US20240209086A1 (PETMEDIX, published 2024).
